We go through 2 molecules from patent publication CN110172090A.

One may read the Kd as the free concentration of one partner at which half of the binding sites on the other are occupied at equilibrium, for simple one-to-one binding. High values mean weaker binding, low ones tighter binding. Usually EC50 stands for the concentration that produces a half-maximal response. A low value points to higher potency in that assay.

For assay [1], the target named is OX40 (Kd检测ELISA法的抗原) (human) (UniProt P43489). Description: ELISA-based Kd method (ELASA法). In general terms: An ELISA detects its analyte on a solid surface through an enzyme-linked reagent.
The target of assay [2] is 人OX40 (膜表面过表达人OX40的293T细胞系) (human) (UniProt P43489). Description: flow cytometry on 293T cells overexpressing human OX40. (Flow cytometry measures light scatter and fluorescence of single cells or particles in a stream.)
The target is the same in assay [3]. Description: flow cytometry on 293T cells overexpressing human OX40, PE goat anti-mouse secondary.

In turn, “CD40 Monoclonal Antibody (HB14), PE, Catalog#CD4004, Invitrogen” showed a Kd in assay [1] of 9.8 nM. The concentration for a half-maximal effect (EC50) in assay [2] came to 2.5 nM.

B1: 抗人OX40单克隆抗体 (杂交瘤OX401M) (antibody, part only; not given: constant regions, V domains shown, part only)
VH: QVQLAQPGAELVRPGASVKQYCKASGYSGSSYTIHWVKQTPSRGLEWIGAIYPGNGDTSWNQKFKGKATITADKSSSTAYMRLSSLTSEDSAISYCARSTYYYGAYYFDYWGQGSTL
For B1, the Kd in assay [1] was 0.0273 nM. This molecule also came in with an EC50 in assay [3] of 0.0125 nM.
